Results reported in patent publication US20090062197A1 (FULCRUM SP, published 2009).
Substitutions are numbered along the chain they refer to. Names and notes keep the numbering of the source.

B1: CRGD SP1 (tumor recognition peptide CRGD inserted into the SP1 N-terminus) (other)
chain: MCRGDATRTPKLVKHTLLTRFKDEITREQIDNYINDYTNLLDLIPSMKSFNWGTDLGMESAELNRGYTHAFESTFESKSGLQEYLDSAALAAFAEGFLPTLSQRLVIDYFLY
notes: also called CRGD2
B2: RGDC SP1 (tumor recognition peptide RGDC inserted into the SP1 N-terminus) (other)
chain: B1 chain with C2R, R3G, G4D, D5C
notes: also called RGDC2
B3: SP1 (wild type, stress related SP1 protein from aspen) (other)
chain: MATRTPKLVKHTLLTRFKDEITREQIDNYINDYTNLLDLIPSMKSFNWGTDLGMESAELNRGYTHAFESTFESKSGLQEYLDSAALAAFAEGFLPTLSQRLVIDYFLY
notes: Full length SP1 without any additional tag, expressed in E. coli; it self-assembles into a dodecamer; also called WT; wild type SP1
B4: SP1 variant E68A (other)
chain: B3 chain with E68A
B5: SP1 variant Y108A (other)
chain: B3 chain with Y108A
B6: SP1 variant D27A (other)
chain: B3 chain with D27A
B7: SP1 variant T34A (other)
chain: B3 chain with T34A
B8: SP1 variant N31A (other)
chain: B3 chain with N31A
B9: SP1 variant I30A (other)
chain: B3 chain with I30A
B10: SP1 variant D38A (other)
chain: B3 chain with D38A
B11: SP1 variant R23A (other)
chain: B3 chain with R23A
B12: SP1 variant Δ2-6 I40C (other)
chain: MKLVKHTLLTRFKDEITREQIDNYINDYTNLLDLCPSMKSFNWGTDLGMESAELNRGYTHAFESTFESKSGLQEYLDSAALAAFAEGFLPTLSQRLVIDYFLY
B13: SP1 variant Δ2-6 L81C (other)
chain: B12 chain with C35I, L76C
B14: SP1 variant Δ2-7 Cys2 (other)
chain: B12 chain with K2C, C35I
B15: ΔNSP1 (N-terminal deleted SP1, deletion of amino acids 2-6) (other)
chain: B12 chain with C35I
notes: Recombinant variant, E. coli; also called Δ2-6; SP1 ΔN
B16: SP1 variant Δ2-6 E72C (other)
chain: B12 chain with C35I, E67C
B17: SP1 variant Cys2loop1RGd (Cys2 K18R Gly19) (other)
chain: MCATRTPKLVKHTLLTRFRGDEITREQIDNYINDYTNLLDLIPSMKSFNWGTDLGMESAELNRGYTHAFESTFESKSGLQEYLDSAALAAFAEGFLPTLSQRLVIDYFLY
B18: SP1 variant HH2 (other)
chain: MHHATRTPKLVKHTLLTRFKDEITREQIDNYINDYTNLLDLIPSMKSFNWGTDLGMESAELNRGYTHAFESTFESKSGLQEYLDSAALAAFAEGFLPTLSQRLVIDYFLY
B19: SP1 variant Δ2-6 His2 (other)
chain: MHKLVKHTLLTRFKDEITREQIDNYINDYTNLLDLIPSMKSFNWGTDLGMESAELNRGYTHAFESTFESKSGLQEYLDSAALAAFAEGFLPTLSQRLVIDYFLY
B20: SP1 variant F106A 6XH2 (other)
chain: MHHHHHHATRTPKLVKHTLLTRFKDEITREQIDNYINDYTNLLDLIPSMKSFNWGTDLGMESAELNRGYTHAFESTFESKSGLQEYLDSAALAAFAEGFLPTLSQRLVIDYALY
B21: SP1 variant N31A T34A 6XH2 (other)
chain: B20 chain with N37A, T40A, A112F
B22: 6HSP1 (six histidine N-terminal tagged SP1) (other)
chain: B20 chain with A112F
notes: also called 6H2; SP1 6H
B23: SP1 variant D38A S75A 6XH2 (other)
chain: B20 chain with D44A, S81A, A112F
B24: SP1 variant S73A S75A 6XH2 (other)
chain: B20 chain with S79A, S81A, A112F

What was measured:
[1] = molecular target: the molecule itself; assay: homo-oligomer complex formation, SDS-PAGE of unboiled samples
[2] = molecular target: the molecule itself; assay: homo-oligomer complex formation after inclusion body refolding, SDS-PAGE, proteinase digestion of monomers
Protocol: The pellet (FIG. 5a, lane 3) was discarded, and the supernatant was collected and dialyzed against buffer with 2 mM DTT for four days (FIG. 5a, lane 4).

[3] = molecular target: the molecule itself; assay: homo-oligomer complex formation after inclusion body refolding (footnote 10), SDS-PAGE, proteinase digestion of monomers
Description: Complex assembly was confirmed by eliminating the monomeric forms using proteinase digestion.

[4] = molecular target: B15; assay: co-electro-elution of monomers, Ni-NTA pull-down, Proteinase K, SDS-PAGE
Protocol: Protein samples were prepared in SDS-sample buffer with excess ratio of SDS to the sample, either boiled (b) for 5 min, or without boiling (nb). […] The hetero-oligomeric complex was isolated on Ni-NTA Agarose beads (lanes 6 and 7).
The denatured proteins were then separated in preparative SDS-PAGE, and visualized by Coomassie blue staining. The monomeric forms of two recombinant protein bands were excised. […] In order to enhance the surface/volume ratio, the gel slices were pulverized using a pestle and mortar in the presence of liquid nitrogen.

Binder	binding result [1]	further results
B1	binds	
B2	binds	
B3	binds	
B4	binds	
B5	binds	
B6	binds	
B7	binds	
B8	binds	
B9	binds	
B10	binds	
B11	binds	
B12	binds	
B13		binding result [2]: binds
B14	binds	
B15	binds	
B16		binding result [3]: binds
B17		binding result [2]: binds
B18	binds	
B19	binds	
B20	binds	
B21	binds	
B22	binds	binding result [4]: binds
B23	binds	
B24	binds	
